Values joined by “and” are separate entries in the source; they are usually repeats but may differ in a detail not shown here. Equal values may be shown once. Read-outs that look alike come from different tables or passages of the source.
What was measured:
NaV1.7 [1] = target: T1, NaV1.7 (Homo sapiens, UniProt Q15858); assay type: cell-based
Procedure: To determine recovery from fast inactivation, a 20 ms pulse to 0 mV from a holding potential of −90 mV was used to induce fast inactivation. A subsequent recovery period, ranging from 1 ms to 2216 ms in 50% increments at −90 mV, was followed by a last 20 ms test pulses to 0 mV to determine the time-dependence of recovery from fast inactivation. The proportion of available channels was determined by normalizing peak currents from the last to the first pulse. A two-phase exponential equation was fit to the normalized current, plotted as a function of time, to determine the time constants τ1 and τ2 of recovery from fast inactivation.

NaV1.7 [2] = target: T1, NaV1.7; assay: Effect of TMEM233 co-expression on ramp currents; assay type: cell-based; conditions: Fig 6j
Procedure: The holding potential was −90 mV. After a 50 ms pulse to −100 mV, ramps from −100 mV to +20 mV at a rate of 0.2 and 1.0 mV/ms were applied before and after ExTxA (100 nM) addition.

NaV1.7 [3] = target: T1, NaV1.7; assay: Effect of TMEM233 co-expression on use-dependence; assay type: cell-based; conditions: Fig 6l; for Use-dependence, predicted (LS) mean: n = 6
Procedure: Use-dependence experiments were performed on the Patchliner Quattro (Nanion Technologies GmbH, Munich, Germany) using an EPC 10 USB Quadro Patch Clamp Amplifier (HEKA Elektronik GmbH, Lambrecht/Pfalz, Germany) and PatchControlHT 2.01.30 and PatchMaster v2x90.4 beta softwares (HEKA Elektronik GmbH, Lambrecht/Pfalz, Germany). Cells at approximately 70–80% confluency were harvested from T75 flasks using Accutase (Thermofisher, Massachusetts, USA) at room temperature for 2–5 min and resuspended in high-glucose Dulbecco’s Modified Eagle Medium (DMEM) (Sigma-Aldrich, New South Wales, Australia) with 15 mM HEPES (Sigma-Aldrich, NSW, Australia) prior to recovery in the cell hotel of the Patchliner for 10 min. ECS contained (in mM): NaCl 140, KCl 4, CaCl2 2, MgCl2 1, HEPES 10, glucose 5. The pH was adjusted to 7.4 with NaOH, and the osmolarity was 298 mOsm. ICS contained (in mM): CsCl 50, NaCl 10, CsF 60, EGTA 20, HEPES 10. The pH was adjusted to 7.2 with CsOH, and the osmolarity was 285 mOsm. A seal enhancer was used containing (in mM): NaCl 80, KCl 3, MgCl2 10, CaCl2 35, HEPES Na^+ salt 10. The pH was adjusted to 7.4 with HCl, and the osmolarity was 298 mOsm. The seal enhancer was washed off before starting the experiments. HEK293 cells stably expressing hNaV1.7/ β1 or hNaV1.7/ β1/C-HA TMEM233 were used. Consecutive series of 30 depolarizing 20 ms pulses from −90 mV to −20 mV were applied with frequencies of 1 Hz, 2 Hz, 5 Hz, 10 Hz, and 20 Hz. After the experiment ExTxA (100 nM) was applied to confirm TMEM233 expression. The amplitude of the test current was normalized to the current induced by the first pulse of its series, with the last test pulse plotted as a function of frequency for statistical analysis.

NaV1.7 [4] = target: T1, NaV1.7; assay type: cell-based; conditions: Fig 6d
Procedure: Current-voltage (IV) curves were determined in HEK-NaV1.7 cells, in the absence and presence of TMEM233, from a series of step pulses (500 ms) ranging from −110 to +55 mV (5 mV increments, repetition interval 5 s) before and after incubation with ExTxA (1 μM) from a holding potential of −90 mV. Currents were converted to conductance (G) using G = I/(V − Vrev), with Vrev being the reversal potential, plotted against voltage and fitted with a Boltzmann equation to obtain GV (conductance-voltage) curves. Voltage dependence of steady-state fast inactivation was determined by a subsequent 10 ms pulse to −20 mV immediately following the 500 ms depolarization step detailed above to assess the available non-inactivated channels.

NaV1.7 [5] = target: T1, NaV1.7; assay type: cell-based; remark: listed apart in the source
Procedure: To determine the voltage dependence of slow inactivation, HEK293-NaV1.7 cells were held at −120 mV and peak current determined by an initial 20 ms pulse to 0 mV. Following a series of 15,000 ms step pulses ranging from −120 to 0 mV in 20 mV increments, a subsequent 50 ms test pulse to 0 mV, preceded by a 50 ms step to −120 mV to remove fast inactivation, was used to determine the remaining current. The proportion of slow-inactivated channels was determined by normalizing peak current from the test pulse to the initial depolarization. A Boltzmann equation was fit to the current data, plotted as a function of voltage, to determine the V50 as well as the minimum proportion of activatable channels.

hNaV1.7/TMEM233 = assay: Persistent current, CHO hNaV1.7/TMEM233; assay type: cell-based, human; conditions: Supplementary Fig 1e

T1 sequence (Q15858 whole entry): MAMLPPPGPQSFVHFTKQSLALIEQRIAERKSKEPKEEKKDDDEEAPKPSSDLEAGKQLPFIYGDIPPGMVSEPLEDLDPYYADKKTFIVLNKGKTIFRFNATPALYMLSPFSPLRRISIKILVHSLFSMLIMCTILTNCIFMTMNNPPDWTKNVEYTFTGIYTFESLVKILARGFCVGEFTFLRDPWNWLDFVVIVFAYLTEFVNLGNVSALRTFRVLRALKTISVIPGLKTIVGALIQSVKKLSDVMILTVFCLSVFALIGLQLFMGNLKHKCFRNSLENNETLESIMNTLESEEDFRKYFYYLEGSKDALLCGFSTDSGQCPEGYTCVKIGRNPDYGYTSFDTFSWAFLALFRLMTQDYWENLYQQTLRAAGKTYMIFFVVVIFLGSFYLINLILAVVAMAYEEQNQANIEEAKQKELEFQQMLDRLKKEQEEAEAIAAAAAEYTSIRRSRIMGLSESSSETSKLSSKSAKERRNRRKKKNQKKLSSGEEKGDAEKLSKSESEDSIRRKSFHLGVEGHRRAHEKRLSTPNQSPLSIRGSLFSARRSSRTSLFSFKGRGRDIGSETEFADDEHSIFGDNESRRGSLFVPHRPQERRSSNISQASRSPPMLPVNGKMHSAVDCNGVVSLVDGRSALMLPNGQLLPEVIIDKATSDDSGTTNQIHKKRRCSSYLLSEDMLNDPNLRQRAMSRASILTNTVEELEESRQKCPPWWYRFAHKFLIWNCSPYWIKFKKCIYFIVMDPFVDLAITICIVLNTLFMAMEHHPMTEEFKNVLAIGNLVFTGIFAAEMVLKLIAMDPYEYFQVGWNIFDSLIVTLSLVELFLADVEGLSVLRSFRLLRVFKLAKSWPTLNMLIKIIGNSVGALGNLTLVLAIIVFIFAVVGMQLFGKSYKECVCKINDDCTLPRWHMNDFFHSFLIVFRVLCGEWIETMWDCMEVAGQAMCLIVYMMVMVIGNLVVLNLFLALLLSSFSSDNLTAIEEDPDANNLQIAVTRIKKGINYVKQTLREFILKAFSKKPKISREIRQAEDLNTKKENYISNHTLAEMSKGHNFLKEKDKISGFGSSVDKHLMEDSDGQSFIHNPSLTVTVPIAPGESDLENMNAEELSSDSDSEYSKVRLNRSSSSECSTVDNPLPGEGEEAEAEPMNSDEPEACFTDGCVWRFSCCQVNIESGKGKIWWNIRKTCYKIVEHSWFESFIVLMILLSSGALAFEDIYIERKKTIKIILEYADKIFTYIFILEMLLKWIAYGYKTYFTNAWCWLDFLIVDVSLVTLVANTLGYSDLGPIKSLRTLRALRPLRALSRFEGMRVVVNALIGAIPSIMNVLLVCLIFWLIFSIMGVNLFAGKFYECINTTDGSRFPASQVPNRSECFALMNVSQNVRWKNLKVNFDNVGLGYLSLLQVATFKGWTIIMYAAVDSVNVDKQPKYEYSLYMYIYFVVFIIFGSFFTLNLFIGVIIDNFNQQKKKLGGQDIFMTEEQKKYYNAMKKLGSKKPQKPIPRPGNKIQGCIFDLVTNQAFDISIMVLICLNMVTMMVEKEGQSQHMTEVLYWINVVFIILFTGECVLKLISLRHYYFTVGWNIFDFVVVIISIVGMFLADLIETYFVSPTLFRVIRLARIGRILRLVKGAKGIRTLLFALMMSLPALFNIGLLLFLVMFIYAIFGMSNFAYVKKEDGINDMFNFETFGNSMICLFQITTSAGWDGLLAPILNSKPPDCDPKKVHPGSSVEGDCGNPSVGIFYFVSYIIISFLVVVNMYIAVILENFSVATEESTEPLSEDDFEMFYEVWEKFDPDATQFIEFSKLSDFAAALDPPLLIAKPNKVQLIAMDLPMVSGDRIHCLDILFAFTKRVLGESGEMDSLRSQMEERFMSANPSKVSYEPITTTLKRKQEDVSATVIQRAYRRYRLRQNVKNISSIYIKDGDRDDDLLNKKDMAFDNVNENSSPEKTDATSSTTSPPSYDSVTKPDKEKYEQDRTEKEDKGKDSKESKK
T1 sequence (Q07699 19-218, further chain): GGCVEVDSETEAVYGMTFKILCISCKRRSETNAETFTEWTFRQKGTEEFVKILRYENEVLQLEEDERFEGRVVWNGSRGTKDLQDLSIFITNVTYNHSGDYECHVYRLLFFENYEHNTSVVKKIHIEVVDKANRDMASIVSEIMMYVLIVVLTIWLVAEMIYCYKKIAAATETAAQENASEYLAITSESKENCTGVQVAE

B1: TMEM233 (protein)
chain: MSQYAPSPDFKRALDSSPEANTEDDKTEEDVPMPKNYLWLTIVSCFCPAYPINIVALVFSIMSLNSYNDGDYEGARRLGRNAKWVAIASIIIGLLIIGISCAVHFTRNA
- Tau (Fast) RFFI, individual values (NaV1.7 [1]): 7.679
- Tau (Fast) RFFI, mean (NaV1.7 [1]; Fig 6i, NaV1.7/β1/TMEM233, mean of n = 18, NaV1.7/β1 (Mock) mean 6.695, n = 8): 9.635
- Tau (Fast) RFFI, individual values (NaV1.7 [1]; Fig 6i, NaV1.7/β1/TMEM233, single replicates): 8.086 and 8.074 and 13.19 and 9.314 and 15.71 and 7.639 and 9.188 and 12.89 and 5.959 and 5.962 and 16.54 and 10.99 and 8.961 and 6.569
- Tau (Fast) RFFI, difference between means (Mock - TMEM233) ± SEM (NaV1.7 [1]; Fig 6i, unpaired t test P = 0.0236, 95% CI -5.450 to -0.4305): -2.940 ± 1.216
- Tau Fast, mean (NaV1.7 [1]; Fig 6m, co-expression with NaV1.7/β1, mean of n = 7, NaV1.7/β1 mean 6.051, n = 16): 10.53
- Tau Fast, individual values (NaV1.7 [1]; Fig 6m, co-expression with NaV1.7/β1, single replicates): 9.314 and 15.71 and 7.639 and 8.588 and 10.41 and 9.188 and 12.89
- Tau Fast, mean diff. NaV1.7/β1/TMEM233 vs. NaV1.7/β1 (NaV1.7 [1]; Fig 6m, Tukey's adjusted P 0.0002, 95% CI 2.091 to 6.876): 4.484
- Tau Fast, mean diff. vs. NaV1.7/β1/TMEM233 35-109 (NaV1.7 [1]; Fig 6m, Tukey's adjusted P 0.0026, 95% CI 1.415 to 7.059): 4.237
- Peak current ramp 1 mV/ms, mean (NaV1.7 [2]; NaV1.7-TMEM233, mean of n = 9, NaV1.7 + pcDNA3.1 mean -0.1808, n = 11, analysis title says (+ExTxA)): -0.1202
- Peak current ramp 1 mV/ms, individual values (NaV1.7 [2]; NaV1.7-TMEM233, single replicates, analysis title says (+ExTxA)): -0.1309 and -0.159 and -0.09062 and -0.1816 and -0.1566 and -0.06849 and -0.0929 and -0.1073 and -0.09446
- Peak current ramp 1 mV/ms, difference between means (TMEM233 - pcDNA3.1) ± SEM (NaV1.7 [2]; unpaired t test P = 0.0914 (ns), 95% CI -0.01079 to 0.1320): 0.06063 ± 0.03399
- Use-dependence, predicted (LS) mean diff. (NaV1.7 - NaV1.7 + TMEM233) (NaV1.7 [3]; 1 Hz, Šídák's adjusted P >0.9999, 95% CI -0.1024 to 0.1060): 0.001783
- Use-dependence, predicted (LS) mean diff. (NaV1.7 - NaV1.7 + TMEM233) (NaV1.7 [3]; 2 Hz, Šídák's adjusted P 0.9266, 95% CI -0.07138 to 0.1370): 0.0328
- Use-dependence, predicted (LS) mean diff. (NaV1.7 - NaV1.7 + TMEM233) (NaV1.7 [3]; 5 Hz, Šídák's adjusted P 0.8365, 95% CI -0.06345 to 0.1449): 0.04074
- Use-dependence, predicted (LS) mean diff. (NaV1.7 - NaV1.7 + TMEM233) (NaV1.7 [3]; 10 Hz, Šídák's adjusted P 0.4449, 95% CI -0.04066 to 0.1677): 0.06353
- Use-dependence, predicted (LS) mean diff. (NaV1.7 - NaV1.7 + TMEM233) (NaV1.7 [3]; 20 Hz, Šídák's adjusted P 0.0161 (*), 95% CI 0.01628 to 0.2247): 0.1205
- Use-dependence, predicted (LS) mean (NaV1.7 [3]; NaV1.7 + TMEM233, 1 Hz, NaV1.7 0.9861, n = 8): 0.9843
- Use-dependence, predicted (LS) mean (NaV1.7 [3]; NaV1.7 + TMEM233, 2 Hz, NaV1.7 0.9649, n = 8): 0.9321
- Use-dependence, predicted (LS) mean (NaV1.7 [3]; NaV1.7 + TMEM233, 5 Hz, NaV1.7 0.9335, n = 8): 0.8928
- Use-dependence, predicted (LS) mean (NaV1.7 [3]; NaV1.7 + TMEM233, 10 Hz, NaV1.7 0.8933, n = 8): 0.8298
- Use-dependence, predicted (LS) mean (NaV1.7 [3]; NaV1.7 + TMEM233, 20 Hz, NaV1.7 0.8046, n = 8): 0.6842
- V50 of Activation (NaV1.7 [4]; Nav1.7/β1/TMEM233, HEK, individual cells, one line each (n = 11)): -31.12 and -24.58 and -26.49 and -27.4 and -28.15 and -19.85 and -25.7 and -20.24 and -36.47 and -27.6 and -24.5
- V50 of Activation, mean (NaV1.7 [4]; Nav1.7/β1/TMEM233, HEK, mean, n = 11): -26.55
- V50 of Activation, difference between means (B - A) ± SEM (NaV1.7 [4]; Nav1.7/β1/TMEM233 minus Nav1.7/β1 (Mock), unpaired t test, P value 0.8489): -0.4462 ± 2.301
- Bottom (Boltzmann sigmoidal, best-fit value) (NaV1.7 [5]): 0.2301
- Slope (Boltzmann sigmoidal, best-fit value) (NaV1.7 [5]): -7.153
- Top (Boltzmann sigmoidal, best-fit value) (NaV1.7 [5]): 1.031
- V50 (Boltzmann sigmoidal, best-fit value) (NaV1.7 [5]): -65.56 mV
- V50, mean (NaV1.7 [5]; Fig. 6g, NaV1.7/β1/TMEM233, mean of n = 13, NaV1.7/β1 (Mock) mean -59.66, n = 11): -65.18
- V50, individual values (NaV1.7 [5]; Fig. 6g, NaV1.7/β1/TMEM233, single replicates): -60.38 and -71.19 and -68.09 and -76.79 and -71.43 and -68.52 and -59.19 and -60.32 and -58.12 and -54.99 and -67.1 and -64.07 and -67.16
- V50, difference between means (TMEM233 - Mock) ± SEM (NaV1.7 [5]; Fig. 6g, unpaired t test P = 0.0108, 95% CI -9.637 to -1.412): -5.524 ± 1.983
- Persistent Current, mean (hNaV1.7/TMEM233; TMEM233 column, toxin not named, mean of n = 16, Control mean -0.0001975, n = 6): -2.01
- Persistent Current, individual values (hNaV1.7/TMEM233; TMEM233 column, toxin not named, single replicates): -0.5607 and -1.881 and -2.243 and -3.609 and -4.773 and -1.301 and -2.129 and -2.32 and -2.174 and -2.568 and -0.4229 and -2.1714 and -2.227 and -1.642
- Persistent Current, difference between means (TMEM233 - Control) ± SEM (hNaV1.7/TMEM233; unpaired t test P = 0.0003, 95% CI -2.968 to -1.051): -2.010 ± 0.4595

Reference: article PMC10147923, “Pain-causing stinging nettle toxins target TMEM233 to modulate NaV1.7 function” (Nature Communications, 2023)
